From the Immune Epitope Database (IEDB)

What was measured:
[1] = target: HLA-A*24:03; assay: IEDB peptide-MHC binding, purified MHC/direct/fluorescence; filed as Kd, often an IC50 or EC50 that approximates it; ≥ and ≤ were set here for values at or beyond the usual limits of such assays; conditions: source organism: Entamoeba histolytica HM-1:IMSS
[2] = target: HLA-A*24:02; assay: IEDB peptide-MHC binding, purified MHC/competitive/fluorescence; filed as Kd, often an IC50 or EC50 that approximates it; ≥ and ≤ were set here for values at or beyond the usual limits of such assays; conditions: source organism: Entamoeba histolytica
[3] = target: HLA-A*32:07; assay: as above; conditions: source organism: Entamoeba histolytica
[4] = target: HLA-A*32:15; assay: as above; conditions: source organism: Entamoeba histolytica
[5] = target: HLA-B*15:42; assay: as above; conditions: source organism: Entamoeba histolytica
[6] = target: HLA-B*45:06; assay: as above; conditions: source organism: Entamoeba histolytica
[7] = target: HLA-B*83:01; assay: as above; conditions: source organism: Entamoeba histolytica
[8] = target: HLA-C*04:01; assay: as above; conditions: source organism: Entamoeba histolytica
[9] = target: HLA-C*06:02; assay: as above; conditions: source organism: Entamoeba histolytica
[10] = target: HLA-C*14:02; assay: as above; conditions: source organism: Entamoeba histolytica
[11] = target: HLA-A*01:01; assay: IEDB peptide-MHC binding, purified MHC/competitive/fluorescence; ≥ and ≤ were set here for values at or beyond the usual limits of such assays; conditions: source organism: Homo sapiens
[12] = target: HLA-A*02:01; assay: as above; conditions: source organism: Homo sapiens
[13] = target: HLA-A*03:01; assay: as above; conditions: source organism: Homo sapiens
[14] = target: HLA-A*11:01; assay: as above; conditions: source organism: Homo sapiens
[15] = target: HLA-A*24:02; assay: as above; conditions: source organism: Homo sapiens
[16] = target: HLA-A*25:01; assay: as above; conditions: source organism: Homo sapiens
[17] = target: HLA-A*29:02; assay: as above; conditions: source organism: Homo sapiens
[18] = target: HLA-A*31:01; assay: as above; conditions: source organism: Homo sapiens
[19] = target: HLA-A*68:02; assay: as above; conditions: source organism: Homo sapiens
[20] = target: HLA-B*07:02; assay: as above; conditions: source organism: Homo sapiens
[21] = target: HLA-B*08:01; assay: as above; conditions: source organism: Homo sapiens
[22] = target: HLA-B*14:02; assay: as above; conditions: source organism: Homo sapiens
[23] = target: HLA-B*18:01; assay: as above; conditions: source organism: Homo sapiens
[24] = target: HLA-B*35:01; assay: as above; conditions: source organism: Homo sapiens
[25] = target: HLA-B*37:01; assay: as above; conditions: source organism: Homo sapiens
[26] = target: HLA-B*40:02; assay: as above; conditions: source organism: Homo sapiens
[27] = target: HLA-B*44:03; assay: as above; conditions: source organism: Homo sapiens
[28] = target: HLA-B*51:01; assay: as above; conditions: source organism: Homo sapiens
[29] = target: HLA-B*53:01; assay: as above; conditions: source organism: Homo sapiens
[30] = target: HLA-B*58:01; assay: as above; conditions: source organism: Homo sapiens

Sequence: SYMSTFPLF
- Kd [1]: ≤ 1 nM
- Kd [2]: ≤ 0.1 nM
- Kd [3]: 0.5 nM
- Kd [4]: 784 nM
- Kd [5]: ≥ 5000 nM
- Kd [6]: ≥ 5000 nM
- Kd [7]: ≥ 5000 nM
- Kd [8]: 88.3 nM
- Kd [9]: 613 nM
- Kd [10]: ≤ 0.1 nM

Sequence: YPDPVIKV
- IC50 [11]: ≥ 20000 nM
- IC50 [12]: 4970 nM
- IC50 [13]: ≥ 20000 nM
- IC50 [14]: ≥ 20000 nM
- IC50 [15]: ≥ 20000 nM
- IC50 [16]: ≥ 20000 nM
- IC50 [17]: ≥ 20000 nM
- IC50 [18]: ≥ 20000 nM
- IC50 [19]: 317 nM
- IC50 [20]: 1460 nM
- IC50 [21]: ≥ 20000 nM
- IC50 [22]: ≥ 20000 nM
- IC50 [23]: 296 nM
- IC50 [24]: 736 nM
- IC50 [25]: ≥ 20000 nM
- IC50 [26]: 540 nM
- IC50 [27]: ≥ 20000 nM
- IC50 [28]: ≥ 20000 nM
- IC50 [29]: ≥ 20000 nM
- IC50 [30]: ≥ 20000 nM
